According to paper PMC6212786 (Nucleic Acids Research, 2018):

B1: E. coli LigA: E. coli NAD+-dependent DNA ligase (protein, UniProt P15042 1-671, looked up)
DNA ligase: MESIEQQLTELRTTLRHHEYLYHVMDAPEIPDAEYDRLMRELRELETKHPELITPDSPTQRVGAAPLAAFSQIRHEVPMLSLDNVFDEESFLAFNKRVQDRLKNNEKVTWCCELKLDGLAVSILYENGVLVSAATRGDGTTGEDITSNVRTIRAIPLKLHGENIPARLEVRGEVFLPQAGFEKINEDARRTGGKVFANPRNAAAGSLRQLDPRITAKRPLTFFCYGVGVLEGGELPDTHLGRLLQFKKWGLPVSDRVTLCESAEEVLAFYHKVEEDRPTLGFDIDGVVIKVNSLAQQEQLGFVARAPRWAVAFKFPAQEQMTFVRDVEFQVGRTGAITPVARLEPVHVAGVLVSNATLHNADEIERLGLRIGDKVVIRRAGDVIPQVVNVVLSERPEDTREVVFPTHCPVCGSDVERVEGEAVARCTGGLICGAQRKESLKHFVSRRAMDVDGMGDKIIDQLVEKEYVHTPADLFKLTAGKLTGLERMGPKSAQNVVNALEKAKETTFARFLYALGIREVGEATAAGLAAYFGTLEALEAASIEELQKVPDVGIVVASHVHNFFAEESNRNVISELLAEGVHWPAPIVINAEEIDSPFAGKTVVLTGSLSQMSRDDAKARLVELGAKVAGSVSKKTDLVIAGEAAGSKLAKAQELGIEVIDEAEMLRLLGS
B2: gp44/62: T4 clamp-loader prepared by co-expressing gp44 and gp62 (protein, UniProt P04526 1-319; P04527 1-187, looked up)
Sliding-clamp-loader large …: MITVNEKEHILEQKYRPSTIDECILPAFDKETFKSITSKGKIPHIILHSPSPGTGKTTVAKALCHDVNADMMFVNGSDCKIDFVRGPLTNFASAASFDGRQKVIVIDEFDRSGLAESQRHLRSFMEAYSSNCSIIITANNIDGIIKPLQSRCRVITFGQPTDEDKIEMMKQMIRRLTEICKHEGIAIADMKVVAALVKKNFPDFRKTIGELDSYSSKGVLDAGILSLVTNDRGAIDDVLESLKNKDVKQLRALAPKYAADYSWFVGKLAEEIYSRVTPQSIIRMYEIVGENNQYHGIAANTELHLAYLFIQLACEMQWK
Sliding-clamp-loader small …: MSLFKDDIQLNEHQVAWYSKDWTAVQSAADSFKEKAENEFFEIIGAINNKTKCSIAQKDYSKFMVENALSQFPECMPAVYAMNLIGSGLSDEAHFNYLMAAVPRGKRYGKWAKLVEDSTEVLIIKLLAKRYQVNTNDAINYKSILTKNGKLPLVLKELKGLVTDDFLKEVTKNVKEQKQLKKLALEW
B3: T4LΔ(222–247)GS: internally truncated construct with a di-amino acid Gly-Ser substituted for residues 222–247 (protein)
chain: MILKILNEIASIGSTKQKQAILEKNKDNELLKRVYRLTYSRGLQYYIKKWPKPGIATQSFGMLTLTDMLDFIEFTLATRKLTGNAAIEELTGYITDGKKDDVEVLRRVMMRDLECGASVSIANKVWPGLIPEQPQMLASSYDEKGINKNIKFPAFAQLKADGARCFAEVRGDELDDVRLLSRAGNEYLGLDLLKEELIKMTAEARQIHPEGVLIDGELVYHGSAEVAESRTASNGIANKSLKGTISEKEAQCMKFQVWDYVPLVEIYSLPAFRLKYDVRFSKLEQMTSGYDKVILIENQVVNNLDEAKVIYKKYIDQGLEGIILKNIDGLWENARSKNLYKFKEVIDVDLKIVGIYPHRKDPTKAGGFILESECGKIKVNAGSGLKDKAGVKSHELDRTRIMENQNYYIGKILECECNGWLKSDGRTDYVKLFLPIAIRLREDKTKANTFEDVFGDFHEVTGL
modifications: left off: His6 (LEHHHHHH), C-terminal, kept
B4: T4 DNA ligase: Full-length wild-type T4 DNA ligase (residues 1–487) (protein, UniProt P00970 1-487, looked up)
chain: MILKILNEIASIGSTKQKQAILEKNKDNELLKRVYRLTYSRGLQYYIKKWPKPGIATQSFGMLTLTDMLDFIEFTLATRKLTGNAAIEELTGYITDGKKDDVEVLRRVMMRDLECGASVSIANKVWPGLIPEQPQMLASSYDEKGINKNIKFPAFAQLKADGARCFAEVRGDELDDVRLLSRAGNEYLGLDLLKEELIKMTAEARQIHPEGVLIDGELVYHEQVKKEPEGLDFLFDAYPENSKAKEFAEVAESRTASNGIANKSLKGTISEKEAQCMKFQVWDYVPLVEIYSLPAFRLKYDVRFSKLEQMTSGYDKVILIENQVVNNLDEAKVIYKKYIDQGLEGIILKNIDGLWENARSKNLYKFKEVIDVDLKIVGIYPHRKDPTKAGGFILESECGKIKVNAGSGLKDKAGVKSHELDRTRIMENQNYYIGKILECECNGWLKSDGRTDYVKLFLPIAIRLREDKTKANTFEDVFGDFHEVTGL
modifications: full-length

Experiments:
[1] = system: nicked substrates containing a single 5′-terminal ribonucleotide adjacent to the nick; details: cited from earlier work
DNA substrate = test: in vitro DNA ligation activity; type: biochemical

| Molecule | ligation activity on nicked substrate with 5′-terminal ribonucleotide [1] | other results |
| --- | --- | --- |
| B1 | ligates this substrate as well as it does a regular DNA substrate |  |
| B2 |  | DNA ligase activity of the preparation (DNA substrate; control of gp45 and gp44/62 preparations, data not shown): no detectable DNA ligase activity |
| B3 |  | in vitro DNA ligation activity relative to wild-type (DNA substrate; vs wild-type T4 DNA ligase, Supplementary Figures S8, S10): comparable or slightly better |
| B4 | better ligation activity on the same substrate, although a fraction of the adenylated intermediate fail to complete the nick-sealing reaction |  |
